Measurements reported in patent US11008403 (dated 2021).
Changes are numbered by the printed parent chain. Names may count otherwise. “And” between values parts separate entries of the source, which are not always exact repeats. Equal entries are not always repeated. Where two headings read alike, the source gives them in different places.

Assays:
cyno FcRn = molecular target: T1, cyno FcRn (cynomolgus, UniProt Q8SPV9); experiment: SPR, pH 6.0
T1 chain 1: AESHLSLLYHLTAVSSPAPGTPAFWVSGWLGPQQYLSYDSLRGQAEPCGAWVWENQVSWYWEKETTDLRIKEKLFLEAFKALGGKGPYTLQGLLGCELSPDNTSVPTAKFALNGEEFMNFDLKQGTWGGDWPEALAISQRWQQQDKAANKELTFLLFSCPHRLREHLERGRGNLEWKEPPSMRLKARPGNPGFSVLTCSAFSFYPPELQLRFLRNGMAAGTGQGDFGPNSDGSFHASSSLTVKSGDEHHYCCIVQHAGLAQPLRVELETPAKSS
T1 chain 2: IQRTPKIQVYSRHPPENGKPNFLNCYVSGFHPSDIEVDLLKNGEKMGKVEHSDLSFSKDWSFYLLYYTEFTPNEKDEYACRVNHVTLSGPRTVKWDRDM

human FcRn = human FcRn (human, UniProt P55899); experiment: SPR, pH 6.0
cyno TfR ECD [1] = molecular target: T2, cyno TfR ECD (cynomolgus); experiment: SPR
T2 chain: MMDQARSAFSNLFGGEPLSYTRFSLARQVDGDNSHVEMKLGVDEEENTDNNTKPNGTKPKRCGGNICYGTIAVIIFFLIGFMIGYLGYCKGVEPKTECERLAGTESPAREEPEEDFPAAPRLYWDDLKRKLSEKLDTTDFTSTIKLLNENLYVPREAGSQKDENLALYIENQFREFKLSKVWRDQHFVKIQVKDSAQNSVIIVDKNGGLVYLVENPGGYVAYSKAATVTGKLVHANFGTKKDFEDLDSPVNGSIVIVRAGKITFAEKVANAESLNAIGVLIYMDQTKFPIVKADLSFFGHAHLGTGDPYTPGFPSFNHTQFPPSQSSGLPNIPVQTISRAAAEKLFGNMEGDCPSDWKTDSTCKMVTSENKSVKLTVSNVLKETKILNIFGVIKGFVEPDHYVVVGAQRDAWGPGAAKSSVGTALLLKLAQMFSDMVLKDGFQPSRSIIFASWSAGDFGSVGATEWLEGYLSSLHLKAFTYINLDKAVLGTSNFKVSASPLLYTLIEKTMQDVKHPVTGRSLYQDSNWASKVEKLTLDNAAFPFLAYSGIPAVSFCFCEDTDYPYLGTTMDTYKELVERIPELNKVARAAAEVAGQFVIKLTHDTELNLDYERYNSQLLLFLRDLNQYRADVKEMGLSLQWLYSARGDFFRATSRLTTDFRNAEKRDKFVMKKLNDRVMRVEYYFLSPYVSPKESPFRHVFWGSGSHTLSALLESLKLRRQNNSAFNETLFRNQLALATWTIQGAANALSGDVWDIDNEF

human TfR ECD [2] = molecular target: human TfR ECD (human); experiment: SPR
human TfR ECD [3] = molecular target: human TfR ECD (human); experiment: SPR; remark: listed apart in the source
cyno TfR ECD [4] = molecular target: T2, cyno TfR ECD; experiment: SPR
cyno TfR ECD [5] = molecular target: T2, cyno TfR ECD; experiment: SPR
cyno TfR ECD [6] = molecular target: T2, cyno TfR ECD; experiment: SPR
human TfR ECD [7] = molecular target: human TfR ECD (human); experiment: SPR; remark: listed apart in the source
human TfR ECD [8] = molecular target: human TfR ECD (human); experiment: SPR; remark: listed apart in the source
human TfR ECD [9] = molecular target: human TfR ECD (human); experiment: SPR; remark: listed apart in the source

B1: Anti-TfR2/6266.hIgG1.LALAPG.YTE (antibody)
chain 1: EVQLVQSGAEVKKPGASVKVSCKASGYTFTSYWMHWVRQAPGQRLEWIGEINPTNGRTNYIEKFKSRATLTVDKSASTAYMELSSLRSEDTAVYYCARGTRAYHYWGQGTMVTVSSASTKGPSVFPLAPSSKSTSGGTAALGCLVKDYFPEPVTVSWNSGALTSGVHTFPAVLQSSGLYSLSSVVTVPSSSLGTQTYICNVNHKPSNTKVDKKVEPKSCDKTHTCPPCPAPEAAGGPSVFLFPPKPKDTLYITREPEVTCVVVDVSHEDPEVKFNWYVDGVEVHNAKTKPREEQYNSTYRVVSVLTVLHQDWLNGKEYKCKVSNKALGAPIEKTISKAKGQPREPQVYTLPPSREEMTKNQVSLSCAVKGFYPSDIAVEWESNGQPENNYKTTPPVLDSDGSFFLVSKLTVDKSRWQQGNVFSCSVMHEALHNHYTQKSLSLSPGK
chain 2: DIQMTQSPSSLSASVGDRVTITCRASDNLYSNLAWYQQKPGKSPKLLVYDATNLADGVPSRFSGSGSGTDYTLTISSLQPEDFATYYCQHFAGTPLTFGQGTKVEIKRTVAAPSVFIFPPSDEQLKSGTASVVCLLNNFYPREAKVQWKVDNALQSGNSQESVTEQDSKDSTYSLSSTLTLSKADYEKHKVYACEVTHQGLSSPVTKSFNRGEC
chain 3: not shown
chain 4: not shown
Which Kd (cyno FcRn) does the source give for B1 here?
The Kd was 200 nM.

What about the Kd (human FcRn) of the same binder?
Its Kd is 300 nM.

B2: Anti-TfR2/6266.hIgG1.LALAPG (antibody)
chain 1: B1 chain 1 with Y251M, T253S, E255T
chain 2: B1 chain 2
chain 3: not shown
chain 4: not shown
With B2 as the binder, how does the Kd (cyno FcRn) read?
The Kd was 1200 nM.

What about the Kd (human FcRn) of the same binder?
The Kd was 1100 nM.

B3: Anti-TfR.52A/6266.hIgG1.LALAPG.YTE (antibody)
chain 1: B1 chain 1 with N52A
chain 2: B1 chain 2 with A92W
chain 3: not shown
chain 4: not shown
For B3, which Kd (cyno FcRn) is on record?
The Kd was 200 nM.

And the Kd (human FcRn)?
Its Kd is 200 nM.

B4: Anti-TfR.52A/6266.hIgG1.LALAPG (antibody)
chain 1: B1 chain 1 with N52A, Y251M, T253S, E255T
chain 2: B1 chain 2 with A92W
chain 3: not shown
chain 4: not shown
With B4 as the binder, how does the Kd (cyno FcRn) read?
The Kd was 1200 nM.

What about the Kd (human FcRn) of the same binder?
The Kd was 800 nM.

B5: Hu15G11.HC34A Fab (antibody, V domains shown)
VH: EVQLVQSGAEVKKPGASVKVSCKASGYTFTSYWAHWVRQAPGQRLEWIGEINPTNGRTNYIEKFKSRATLTVDKSASTAYMELSSLRSEDTAVYYCARGTRAYHYWGQGTMVTVSS
VL: DIQMTQSPSSLSASVGDRVTITCRASDNLYSNLAWYQQKPGKSPKLLVYDATNLADGVPSRFSGSGSGTDYTLTISSLQPEDFATYYCQHFWGTPLTFGQGTKVEIK
What does the source list for B5?
Kd (cyno TfR ECD [1]): 32.6 nM; Kd (human TfR ECD [2]): 7.14 nM

B6: Hu15G11.HC32A Fab (antibody, V domains shown)
VH: B5 VH with Y32A, A34M
VL: B5 VL
How did the Kd (human TfR ECD [2]) turn out when B6 was run?
The Kd was 7.47 nM.

B7: antiTfR.52A.M108L.Fab (antibody, V domains shown)
VH: B5 VH with A34M, N52A, M111L
VL: B5 VL
How did the Kd (human TfR ECD [3]) turn out when B7 was run?
Its Kd is 72.2 nM.

B8: Anti-TfR2/6266.hIgG1.LALAPG.YTE, TfR arm (antibody, V domains shown)
VH: B5 VH with A34M
VL: DIQMTQSPSSLSASVGDRVTITCRASDNLYSNLAWYQQKPGKSPKLLVYDATNLADGVPSRFSGSGSGTDYTLTISSLQPEDFATYYCQHFAGTPLTFGQGTKVEIKR
How did the Kd (cyno TfR ECD [4]) turn out when B8 was run?
The Kd was 1650 nM.

B9: Hu15G11.HC53A Fab (antibody, V domains shown)
VH: B5 VH with A34M, T54A
VL: B5 VL
B9 was tested. Which Kd (cyno TfR ECD [1]) did it give?
Its Kd is 51.8 nM.

And the Kd (human TfR ECD [2])?
Its Kd is 12.9 nM.

B10: Hu15G11.v5 Fab (antibody, V domains shown)
VH: B5 VH with A34M
VL: B5 VL
Which results are given for B10?
Kd (cyno TfR ECD [5]): 28.2 nM; Kd (cyno TfR ECD [1]): 28.2 nM; Kd (cyno TfR ECD [6]): 15.6 nM; Kd (human TfR ECD [7]): 4.7 nM and 8.91 nM; Kd (human TfR ECD [2]): 7.03 nM; Kd (human TfR ECD [8]): 7.03 nM

B11: Hu15G11.HC51A Fab (antibody, V domains shown)
VH: B5 VH with A34M, I51A
VL: B5 VL
B11 was tested. Which Kd (cyno TfR ECD [1]) did it give?
The Kd was 105 nM.

And the Kd (human TfR ECD [2])?
Its Kd is 23.9 nM.

B12: Hu15G11.W92A bispecific, TfR arm (antibody, V domains shown)
VH: B5 VH with A34M
VL: B5 VL with W92A
With B12 as the binder, how does the Kd (cyno TfR ECD [5]) read?
The Kd was 622 nM.

What about the Kd (human TfR ECD [8]) of the same binder?
Its Kd is 295 nM.

B13: Hu15G11.HC52A Fab (antiTfR.52A.Fab) (antibody, V domains shown)
VH: B5 VH with A34M, N52A
VL: B5 VL
For B13, which Kd (cyno TfR ECD [1]) is on record?
The Kd was 117 nM.

What about the Kd (human TfR ECD [3]) of the same binder?
Its Kd is 55 nM.

What about the Kd (human TfR ECD [2]) of the same binder?
Its Kd is 34.6 nM and 44.4 nM.

B14: Anti-TfR1/6266.hIgG1.N297G, TfR arm (antibody, V domains shown)
VH: B5 VH with A34M
VL: B5 VL
Which results are given for B14?
Kd (cyno TfR ECD [4]): 23.7 nM; Kd (human TfR ECD [9]): 9 nM

B15: Hu7A4.v15 Fab (antibody, V domains shown)
VH: EVQLVQSGAEVKKPGASVKVSCKGSGYTFTDYAMHWVRQAPGQGLEWMGGISTYFGRTNYNQKFKGRVTMTVDTSISTAYMELSRLRSDDTAVYYCARGLSGNYVMDYWGQGTTVTVSS
VL: DIVMTQSPDSLAVSLGERATINCRASESVDSYGNSFMHWYQQKPGQPPKLLIYRASNLESGVPDRFSGSGSRTDFTLTISSLQAEDVAVYYCQQSNEAPPTFGQGTKLEIK
Which results are given for B15?
Kd (cyno TfR ECD [6]): 4.28 nM; Kd (human TfR ECD [7]): 0.348 nM

B16: Hu7G7.v1 Fab (antibody, V domains shown)
VH: EVQLVQSGAEVKKPGASVKVSCKASGYTFTSYWMHWVRQAPGQGLEWIGNIYPGSGSTKYDERFKSRVTITVDTSTSTAYLELSSLRSEDTAVYYCTRGGYDSRAWFAYWGQGTLVTVSS
VL: DIVMTQSPDSLAVSLGERATINCRARQSVSTSSYSFMHWYQQPAGQPPKLLIKYASIQESGVPDRFSGSGSGTDFTLTISSLQAEDVAVYYCQHTWEIPFTFGQGTKVEIK
Which Kd (cyno TfR ECD [6]) does the source give for B16 here?
Its Kd is 188 nM.

What about the Kd (human TfR ECD [7]) of the same binder?
Its Kd is 45.8 nM.
